The source of these data is patent publication US12618845B2, “Methods and compositions for protein sequencing” (Quantum-Si Incorporated, priority 2018, dated 2026).

Like-named read-outs stand apart in the source and are kept apart here. Some results are limits rather than exact numbers.

One test concerns peptide substrates. Format: biochemical.
In test [1] the test system is amino acid at a terminal position of a polypeptide. The conditions noted are these: amino acid identity at a terminal position of a polypeptide; phospho-Y also at an internal position; cited from earlier work.

B1: NPEPPS: puromycin-sensitive aminopeptidase, SEQ ID NO: 56 (protein)
chain: MWLAAAAPSLARRLLFLGPPPPPLLLLVFSRSSRRRLHSLGLAAMPEKRPFERLPADVSPINYSLCLKPDLLDFTFEGKLEAAAQVRQATNQIVMNCADIDIITASYAPEGDEEIHATGFNYQNEDEKVTLSFPSTLQTGTGTLKIDFVGELNDKMKGFYRSKYTTPSGEVRYAAVTQFEATDARRAFPCWDEPAIKATFDISLVVPKDRVALSNMNVIDRKPYPDDENLVEVKFARTPVMSTYLVAFVVGEYDFVETRSKDGVCVRVYTPVGKAEQGKFALEVAAKTLPFYKDYFNVPYPLPKIDLIAIADFAAGAMENWGLVTYRETALLIDPKNSCSSSRQWVALVVGHELAHQWFGNLVTMEWWTHLWLNEGFASWIEYLCVDHCFPEYDIWTQFVSADYTRAQELDALDNSHPIEVSVGHPSEVDEIFDAISYSKGASVIRMLHDYIGDKDFKKGMNMYLTKFQQKNAATEDLWESLENASGKPIAAVMNTWTKQMGFPLIYVEAEQVEDDRLLRLSQKKFCAGGSYVGEDCPQWMVPITISTSEDPNQAKLKILMDKPEMNVVLKNVKPDQWVKLNLGTVGFYRTQYSSAMLESLLPGIRDLSLPPVDRLGLQNDLFSLARAGIISTVEVLKVMEAFVNEPNYTVWSDLSCNLGILSTLLSHTDFYEEIQEFVKDVFSPIGERLGWDPKPGEGHLDALLRGLVLGKLGKAGHKATLEEARRRFKDHVEGKQILSADLRSPVYLTVLKHGDGTTLDIMLKLHKQADMQEEKNRIERVLGATLLPDLIQKVLTFALSEEVRPQDTVSVIGGVAGGSKHGRKAAWKFIKDNWEELYNRYQGGFLISRLIKLSVEGFAVDKMAGEVKAFFESHPAPSAERTIQQCCENILLNAAWLKRDAESIHQYLLQRKASPPTV
modifications: Puromycin-sensitive aminopeptidase
As to B1, in the test with peptide substrates (substrate LeuTyr 5 mM, 700 nM enzyme, 25 mM HEPES, 1 mM Mg(OAc)2, 1 mM DTT, pH 7.5, 37° C./1 hr), the “HPLC Assay Conv” value is 5%.

B2: P. falciparum M1 (protein, listed as Plasmodium falciparum)
chain: PKIHYRKDYKPSGFIINQVTLNINIHDQETIVRSVLDMDISKHNVGEDLVFDGVGLKINEISINNKKLVEGEEYTYDNEFLTIFSKFVPKSKFAFSSEVIIHPETNYALTGLYKSKNIIVSQCEATGFRRITFFIDRPDMMAKYDVTVTADKEKYPVLLSNGDKVNEFEIPGGRHGARFNDPPLKPCYLFAVVAGDLKHLSATYITKYTKKKVELYVFSEEKYVSKLQWALECLKKSMAFDEDYFGLEYDLSRLNLVAVSDFNVGAMENKGLNIFNANSLLASKKNSIDFSYARILTVVGHEYFHQYTGNRVTLRDWFQLTLKEGLTVHRENLFSEEMTKTVTTRLSHVDLLRSVQFLEDSSPLSHPIRPESYVSMENFYTTTVYDKGSEVMRMYLTILGEEYYKKGFDIYIKKNDGNTATCEDFNYAMEQAYKMKKADNSANLNQYLLWFSQSGTPHVSFKYNYDAEKKQYSIHVNQYTKPDENQKEKKPLFIPISVGLINPENGKEMISQTTLELTKESDTFVFNNIAVKPIPSLFRGFSAPVYIEDQLTDEERILLLKYDSDAFVRYNSCTNIYMKQILMNYNEFLKAKNEKLESFQLTPVNAQFIDAIKYLLEDPHADAGFKSYIVSLPQDRYIINFVSNLDTDVLADTKEYIYKQIGDKLNDVYYKMFKSLEAKADDLTYFNDESHVDFDQMNMRTLRNTLLSLLSKAQYPNILNEIIEHSKSPYPSNWLTSLSVSAYFDKYFELYDKTYKLSKDDELLLQEWLKTVSRSDRKDIYEILKKLENEVLKDSKNPNDIRAVYLPFTNNLRRFHDISGKGYKLIAEVITKTDKFNPMVATQLCEPFKLWNKLDTKRQELMLNEMNTMLQEPQISNNLKEYLLRLTNK
In the case of B2, the “HPLC Assay Conv” value in the test with peptide substrates (substrate MetTyr, 1 mM peptide, 1 mM enzyme, 2.5 mM ZnCl2 25 mM Tris pH 8.0, 30° C./1 hr) is 7%.

B3: V. anguillarum APN (protein)
chain: MEEKVWISIGGDATQTALRSGAQSLLPENLINQTSVWVGQVPVSELATLSHEMHENHQRCGGYMVHPSAQSAMSVSAMPLNLNAFSAPEITQQTTVNAWLPSVSAQQITSTITTLTQFKNRFYTTSTGAQASNWIADHWRSLSASLPASKVEQITHSGYNQKSVMLTITGSEKPDEWVVIGGHLDSTLGSRTNESSIAPGADDDASGIAGVTEIIRLLSEQNFRPKRSIAFMAYAAEEVGLRGSQDLANRFKAEGKKVMSVMQLDMTNYQGSREDIVFITDYTDSNFTQYLTQLLDEYLPSLTYGFDTCGYACSDHASWHAVGYPAAMPFESKFNDYNPNIHSPQDTLQNSDPTGFHAVKFTKLGLAYVVEMGNASTPPTPSNQLKNGVPVNGLSASRNSKTWYQFELQEAGNLSIVLSGGSGDADLYVKYQTDADLQQYDCRPYRSGNNETCQFSNAQPGRYSILLHGYNNYSNASLVANAQ
For B3, the “HPLC Assay Conv” value is on record as 50% in the test with peptide substrates (substrate AAPAAP{LYSN3}NH2 (SEQ ID NO: 98), 1 mM peptide, 2 μM enzyme, 2.5 mM ZnCl2, 25 mM Tris pH 8.0, 30° C./1 hr); less than 5% with peptide substrates (substrate KKPKKP{LYSN3}NH2 (SEQ ID NO: 100), 1 mM peptide, 2 μM enzyme, 2.5 mM ZnCl2, 25 mM Tris pH 8.0, 30° C./1 hr); more than 90% in the test on peptide substrates (substrate RRPRRP{LYSN3}NH2 (SEQ ID NO: 96), 1 mM peptide, 2 μM enzyme, 2.5 mM ZnCl2, 25 mM Tris pH 8.0, 30° C./1 hr).

B4: Agrobacterium tumifaciens ClpS2: amino acid recognition protein, SEQ ID NO: 2 (protein, listed as Agrobacterium tumifaciens)
chain: MSDSPVDLKPKPKVKPKLERPKLYKVMLLNDDYTPREFVTVVLKAVFRMSEDTGRRVMMTAHRFGSAVVVVCERDIAETKAKEATDLGKEAGFPLMFTTEPEE
With B4, the “Binding Pref.” value in test [1] is given as “F, W, Y”.

B5: Agrobacterium tumifaciens ClpS2 C71S: amino acid recognition protein, SEQ ID NO: 3 (protein, listed as Agrobacterium tumifaciens)
chain: MSDSPVDLKPKPKVKPKLERPKLYKVMLLNDDYTPREFVTVVLKAVFRMSEDTGRRVMMTAHRFGSAVVVVSERDIAETKAKEATDLGKEAGFPLMFTTEPEE
For the molecule B5, in test [1], the “Binding Pref.” value was “F, W, Y”.

B6: VPr pAzF (protein)
chain: MPPITQQATVTAWLPQVDASQITGTISSLESFTNRFYTTTSGAQASDWIASEWQALSASLPNASVKQVSHSGYNQKSVVMTITGSEAPDEWIVIGGHLDSTIGSHTNEQSVAPGADDDASGIAAVTEVIRVLSENNFQPKRSIAFMAYAAEEVGLRGSQDLANQYKSEGKNVVSALQLDMTNYKGSAQDVVFITDYTDSNFTQYLTQLMDEYLPSLTYGFDTCGYACSDHASWHNAGYPAAMPFESKFNDYNPRIHTTQDTLANSDPTGSHAKKFTQLGLAYAIEMGSATGDTPTPGNQ
modifications: non-natural residues
On to B6, for which the “HPLC Assay Conv” value with peptide substrates (substrate […]{LYSN3}NH2 (SEQ ID NO: 107), 200 μM Peptide, 4 μM enzyme, 10 mM MgCl2, 50 mM MOPS pH 8.0, 37° C./1 hr) is 96%.

B7: H. sapiens Fyn SH2 domain: amino acid recognition protein, SEQ ID NO: 22 (protein, listed as Homo sapiens)
chain: MGAMDSIQAEEWYFGKLGRKDAERQLLSFGNPRGTFLIRESETTKGAYSLSIRDWDDMKGDHVKHYKIRKLDNGGYYITTRAQFETLQQLVQHYSERAAGLSSRLVVPSHK
For the molecule B7, in test [1], the “Binding Pref.” value is “phospho-Y”.

B8: P. horikoshii Tet (protein)
chain: MEVRNMVDYELLKKVVEAPGVSGYEFLGIRDVVIEEIKDYVDEVKVDKLGNVIAHKKGEGPKVMIAAHMDQIGLMVTHIEKNGFLRVAPIGGVDPKTLIAQRFKVWIDKGKFIYGVGASVPPHIQKPEDRKKAPDWDQIFIDIGAESKEEAEDMGVKIGTVITWDGRLERLGKHRFVSIAFDDRIAVYTILEVAKQLKDAKADVYFVATVQEEVGLRGARTSAFGIEPDYGFAIDVTIAADIPGTPEHKQVTHLGKGTAIKIMDRSVICHPTIVRWLEELAKKHEIPYQLEILLGGGTDAGAIHLTKAGVPTGALSVPARYIHSNTEVVDERDVDATVELMTKALENIHELKI
Take B8: the “HPLC Assay Conv” value in the test with peptide substrates (substrate AAPAAP{LYSN3}NH2 (SEQ ID NO: 90), 1 mM peptide, 1 mM enzyme, 2.5 mM ZnCl2, 25 mM Tris pH 8.0, 70° C./1 hr) came out at 100%; in the test on peptide substrates (substrate DDMDDM{LYSN3}NH2 (SEQ ID NO: 72), 1 mM peptide, 1 mM enzyme, 2.5 mM ZnCl2, 25 mM Tris pH 8.0, 70° C./1 hr), 60%; in the test on peptide substrates (substrate FFPFFP{LYSN3}NH2 (SEQ ID NO: 94), 1 mM peptide, 1 mM enzyme, 2.5 mM ZnCl2, 25 mM Tris pH 8.0, 70° C./1 hr), 100%; in the test with peptide substrates (substrate YYPYYP{LYSN3}NH2 (SEQ ID NO: 92), 1 mM peptide, 1 mM enzyme, 2.5 mM ZnCl2, 25 mM Tris pH 8.0, 70° C./1 hr), 100%.
